# According to the supplement of paper PMC9170038:
# Tested on: K4 kissing-loop RNA reporter
# Assay: apparent KD of K4 kissing-loop reporter; higher = weaker reporter binding
# Details: Eterna round: R107
# Method: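 RNA-MaP round R107: designed RNA switches with theophylline, tryptophan, arginine or FMN aptamers are transcribed on-chip within common flanks. They are titrated with a labelled K4 kissing-loop RNA reporter in RNA-MaP buffer (100 mM Tris pH 7.5, 80 mM KCl, 4 mM MgCl2), without ligand or with the indicated ligand. Median apparent KD per design.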
# [1] = input ligand: theophylline 20 uM
# [2] = input ligand: tryptophan 2.4 mM
# 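Also: bound reporter read as fluorescence of individual clusters on recovered sequencing chips by microscopy, with normalized cluster intensities fitted with a binding model.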
Sequence,apparent KD of K4 kissing-loop reporter (input ligand: FMN 200 uM) [nM],apparent KD of K4 kissing-loop reporter (input ligand: arginine 13.2 mM) [nM],apparent KD of K4 kissing-loop reporter (input ligand: none) [nM],apparent KD of K4 kissing-loop reporter [1] [nM],apparent KD of K4 kissing-loop reporter [2] [nM]
CGAUACGGAAAUACGUGUCUCUAUUCAGAAGGAGCGUGUUUGUACACAGGUAGGUCGCUGAAAUUUAAACUAGUGAUGUUAGACU [JR_SSArginiA_Sub003],1160,816,1160,895,929
AAAUUUAUAUUAGAUACCAGUAUUUUGAAUGUUUAUUAUGACAAGAGUGAUGUUCUUGUAUGCCCUUGGCAGCUGGUAUGGGUUU [KL-XTheo-B23],116,111,111,113,115
GCAGUGAUGUUGCUCGUUUCAUCGCGAGAUACCAGACCAUAUGAGGUCCCUUGGCAGCUCUAGUCAUCUGGUCCUUUUGCGUACU [theeternabot_exclusion_KL_Theo_A_2],906,620,941,722,653
AGACUACCACACUGUCAAUAGACAGUGAACUAGGAUAUGCUGAUAAGCAGAAGGAGUGAUGUUCCUAAUAAAAGGUAGUCAUAAU [FmnAX 16 #SwitchBubble #StaticStem #K4Early],426,431,415,587,360
GCCGUACGCACGGAUACCAGCACUCGGUGAGUGAUGUUCACGGUGUGGUAUUCACCGGGCUGCCCUUGGCAGCCGUGCGUACGGC,375,301,343,1280,283
AGGAGCGUGGGAUGCAAAUCGCACGCUCCUCGAGGACCGGUACGGCCGCCACUCGCUCGCGCCGAGUGAUGUUCGGCCGGCGAAC [#2 Same State - Tryptophan A Attempt #14 (HarryS)],221,232,247,266,407
ACACGUGUGGCAGGAUAUCGGGCUGUGGAUCGGCUGGUUACUUAUUCUCGACCAGUGAUGUUGGUACGAGAAGGGCUACCCAGAA [Cetebera],145,124,139,135,116
AAAAUAAACCAGUGAUGUUGGUGUCUGGAUACCAGCGACGAAAGUCGCCCUUGGCAGCUAUGGACGUACAAAAUAAGUACGUCCU [MatMod 7 - Jieux - Same State - Theophylline A],704,485,622,637,510
AAGUGUGUGGCGGCCGCCACUAGAAUCCAGUGAUGUUGGAAUAAUCAAAUAAAUAAUAAUAAACAUAGGACCGGGCCAUAUAGAA [Same State - Tryptophan B (Freestyle 1)],145,140,145,157,139
CGCGCCCAGCCGGAUACCAGUGACCCGCUGGGAACCGCGGGCCCAGAGUGAUGUUCGGGACACCCUUGGCAGCCGCCUGGGCGGU [#2 Same State - Theophylline B Attempt #10 (HarryS)],2380,576,1270,576,1570
GGCGGGUGCCCGUAAGGGUGCCCGGCCGAUACCAGCGCGACGGCGCGCCCUUGGCAGCGGCGCCGAGUGAUGUUCGGCCUGCCGU [#2 Same State - Theophylline A Attempt #24 (HarryS)],92.7,105,90.6,84.5,151
CAGACCACAGAGUGAUGUUCUGUGUCCGAAGGAGCGCGCGAGAGCGCAGGUAGGUCGCGGAUACAGUUGACGUACCUUCAAGACA [Arg A Ex t3],193,179,205,230,219
AAACAUCACUGGGAGUGAUGUUCUCAGUGACGAGGACCGGUACGGCCGCCACUCGCGAGAGAUAUAAUUAAGUAAUGACUUCAUU [Excl Tryptophan A V7],241,205,231,246,287
UGUCAUGGAAACAUGAACGUUGAUGUUCGACGAGGACCGGUACGGCCGCCACUCGAGUAAUAGUCAGUGAUGUUGACUUGUUUAA [KL-SSTryp-A form1 sub4],49.4,101,69.1,90.9,55.6
CGUACAUCUUUUCGCGGAGUGAUGUUCUCGCGAGGACCGGUACGGCCGCCACUCGAAUUGUUAUCUGGCGAAAAUUGUCUAUAAA [theeternabot_exclusion_KL_Trp_A_33],393,273,352,318,410
UGAUAGGACAGAAGGAGCGGAAGUGAUGUUUCCAAUGGAAUUAAGGUGUCAAAGACACCCUUCCAGGUAGGUCGCUGUCCUAUCU [ArgBX 18 #Palindromic #SwitchBubble #StaticStem],156,161,155,159,145
AUCUCGGUAUCAGAUACCAGACUAUCGAUACCGAGUGUAUCGGGUAGUGAUGUUACCAUAGUCCCUUGGCAGCUGGUAGUUCAUA [Theo B SS t9c],256,249,261,280,213
UGUGAACAAAAGUAGAGUGGACCACUAUAGCGAGGACCGGUACGGCCGCCACUCGUAUAUGAAUUCAGUGAUGUUGAAAAGAGCU [whbob_EX_Tryp_A_t10],180,281,231,306,165
GUGCGGCUAGUGAUGUUGGUUGCGUGGGAAGGAGCGCAGAAACAUGCAGGUAGGUCGCCCACAUCUCGGAUAAGAGAUUAAUUCC [Arorso],291,153,252,262,244
AUAAUCUUGCAGUGAUGUUGCAAGAAAGCUCAGGAUAUCAGGAAACUGAGAAGGGAGCAUCCUGAGCACUUGCAACAGUGCUCAG [[K1]-[K2]-[F1]-[F2]-[F]'-[K]'-[F]''_Design3],127,100,296,288,117
CGCGGCCGGCCGGAUACCAGUGACCCGCUGGCAACCGCGGGCCCAGAGUGAUGUUCGGGACACCCUUGGCAGCCGCCUGGGCGUG [#2 Same State - Theophylline B Attempt #4 (HarryS)],521,309,483,694,396

Sequence,apparent KD of K4 kissing-loop reporter (input ligand: FMN 200 uM) [nM],apparent KD of K4 kissing-loop reporter (input ligand: arginine 13.2 mM) [nM],apparent KD of K4 kissing-loop reporter (input ligand: none) [nM],apparent KD of K4 kissing-loop reporter [1] [nM],apparent KD of K4 kissing-loop reporter [2] [nM]
UGUACCGAGGCAGGAUAUGUCGUCGAAAGACGAAAUGGAGUGAUGUUCCUUAAACUGCGAAAGCAGACAGAAGGGCCUUGGUACU [FmnBS 29 G10+C76],132,179,175,202,160
GUUCCCUACAAGGAUACCAGAACGUGUAGUCCGAGCGCUAGUGAUGUUGGCGUCUACCUCUUCCCUUGGCAGCCUGCAAAUCAGU [theeternabot_sameState_KL_Theo_B_48],269,155,236,217,200
UUUUGGCCAACGGCCGCCACUCACUAGUGAUGUUAGUUUGUGUUAUUCAUGAACCCGAUGUCGUCGAGGACCGGGUUGGGUUAUA [theeternabot_exclusion_KL_Trp_B_41],242,197,237,201,244
CACGAUGAAUUCUCUAGGAGUGAUGUUUUUCGAGGACCGGUACGGCCGCCACUCGGACCACGAGCGUGGUAGCGGCGAAAAGACU [qpmullin],782,464,629,443,1070
GGAUAGGACAGAGGAUAUGGUAGUGAUGUUACCAAACUGGUUACUCUUGUCAGAAAACUGGCAUCUCUAGAAGGCUGUCCUAUCG [KL-XFMN-B9],389,156,149,144,168
ACAUGUGCCAGUGAUGUUGGCGUACGUGAUACCAGACGAAUAAAAGUCCCUUGGCAGCACAAAUAAGCCAAGAUAGAUGAAUGAU [#03 K4 Theophylline A Exclusion],191,159,203,242,189
UUUGGCCACAGAGAUACCAGUCAUAUCGCUCUGGAGUGAUGUUCCGGAACAUGCGGAGAAGACCCUUGGCAGCUCAUGACGGUAA [Exclusion Theophylline B GF 2],232,194,196,201,254
AAACAUCACUGGGAGUGAUGUUCUCAGUGACGAGGACCGGUACGGCCGCCACUCGCGAGAGAUAUAGUCUAGUAUUGACUGCAUU [Excl Tryptophan A V11],242,244,231,339,348
CCUAUCUCAUACGAUACCAGUGAAUUUAUAUUUAUAAGCAGUGAUGUUGCAUUCCAAGUACACCCUUGGCAGCGUAUGGGAUAGG [Ex Theophylline B K4 21],197,203,213,168,161
GGGAAACCCAAUCAUACGGCGGUUCUUAGUCGAGGACCGGUACGGCCGCCACUCGAACUUGCUAGUGAUGUUAGCUUAUCGAGCU,221,296,253,265,162
UUUGUAUCGGGAAGGAGCGUGAAUGAUAAUGGAUAUAGUGAUGUUAUAUAUAAGAACGAAUCACAGGUAGGUCGCCCGGAUGACU [SSArgB.P],546,566,648,586,678
GGGAGUAGUGCGGCCGCCACUGAGAAAGAAGAAGAAUAUAGUGAUGUUAUAUAGGAAAUAAAGAACAGGACCGGGCAUUAGAUUU [SSTRyptB.N],269,216,244,210,149
UAGCGUAUUGAAGGAUAUUGCCUAGGAGUGAUGUUUGUAGAAAAUUUCCAACGGAACGAAUGUUAGCAAGAAGGUCAAUGGCCUU [theeternabot_exclusion_KL_FMN_B_40],230,239,404,456,281
UGGACCUGACUCGAUACGAGUCAAUGAGAUACCAGCCACGAAAGUGGCCCUUGGCAGCUCUGCCAGUGAUGUUGGUCAAGGUCCU [#SwitchBubble 9 #StaticStem],1540,1140,1530,765,1360
UUUAAACAUAGUGAUGUUAUGUAACAGUGACGAGGACCGGUACGGCCGCCACUCGAGAGAGAUAGUGGUCAUGCAAAUGUAUGCC [#16 K4 Tryptophan A Same State],145,167,123,136,137
GGAGGGAUCUCGGCCGCCACUCAUAAGAAAUGGGCCUCAGAAAUAUAGUGAUGUUAUAUAAAGAAGAGGACCGGGAGAAAGAAGG [ExTryptoB.D],197,128,129,203,131
AGACCACAAAGUGGUCAGUGUUCGCAGCAGCGAGGACCGGUACGGCCGCCACUCGCGAGUGAUGUUCGCGAGAGCUGCGAACACA [Omei KL Tryp A Exc A v7],101,83.2,81.3,83.3,109
GGAUAGGACAGAGGAUAUGGUAGUGAUGUUACCAAACUGGUUAUCAAUGUUAGAAAAUUGACAAAUCCAGAAGGCUGUCCUAUCG [KL-XFMN-B14],198,60.7,66.4,54.8,62
GCAACAUUGGAAGGAUAUCAUUCUGAGUGAUGUUCAGGGUUCAGCUAACGAAAGUUAGUUGUACCAUGAGAAGGUCUAAUGUUGC [Omei KL FMN B SS A v4],332,646,1610,1220,1010
AAUGCAUUGUGAAGGAGCGCGAUAGGCAGUGAUGUUGCUUACAUUUUAUUAUGUUUUAAAACGCAGGUAGGUCGCACUUUGCAUA [JR_Nu_SSArginiB_Sub030],187,163,183,193,162
AGUGAUGUUGAGUUAUCUUAGUGAAGUGAUCGAGGACCGGUACGGCCGCCACUCGAGUGAUGAGUGAGUGAUGUUUGUUUAGUGA [zzymullin],546,431,549,593,311
